Source: patent US20220396819A1, “METHOD FOR PRODUCING PEPTIDE HAVING PHYSIOLOGICAL ACTIVITY, AND PEPTIDE COMPRISING SHORT LINKER” (priority 2019, published 2022)
Positions of bridges follow the written chain, without caps; N, C: chain ends. No end group written: not given here.

Key:
[1] = target: T1, Met (Homo sapiens, UniProt P08581); assay: Met activation ability, SRE luciferase assay in HEK293E cells (HGF-Erk-SRE pathway); type: cell-based; details: for signal activation ability, dimer versus monomer: Example 43, FIG. 76
T1 construct: endogenous in cells; host or cells: HEK293E
T1 sequence (P08581 25-1390): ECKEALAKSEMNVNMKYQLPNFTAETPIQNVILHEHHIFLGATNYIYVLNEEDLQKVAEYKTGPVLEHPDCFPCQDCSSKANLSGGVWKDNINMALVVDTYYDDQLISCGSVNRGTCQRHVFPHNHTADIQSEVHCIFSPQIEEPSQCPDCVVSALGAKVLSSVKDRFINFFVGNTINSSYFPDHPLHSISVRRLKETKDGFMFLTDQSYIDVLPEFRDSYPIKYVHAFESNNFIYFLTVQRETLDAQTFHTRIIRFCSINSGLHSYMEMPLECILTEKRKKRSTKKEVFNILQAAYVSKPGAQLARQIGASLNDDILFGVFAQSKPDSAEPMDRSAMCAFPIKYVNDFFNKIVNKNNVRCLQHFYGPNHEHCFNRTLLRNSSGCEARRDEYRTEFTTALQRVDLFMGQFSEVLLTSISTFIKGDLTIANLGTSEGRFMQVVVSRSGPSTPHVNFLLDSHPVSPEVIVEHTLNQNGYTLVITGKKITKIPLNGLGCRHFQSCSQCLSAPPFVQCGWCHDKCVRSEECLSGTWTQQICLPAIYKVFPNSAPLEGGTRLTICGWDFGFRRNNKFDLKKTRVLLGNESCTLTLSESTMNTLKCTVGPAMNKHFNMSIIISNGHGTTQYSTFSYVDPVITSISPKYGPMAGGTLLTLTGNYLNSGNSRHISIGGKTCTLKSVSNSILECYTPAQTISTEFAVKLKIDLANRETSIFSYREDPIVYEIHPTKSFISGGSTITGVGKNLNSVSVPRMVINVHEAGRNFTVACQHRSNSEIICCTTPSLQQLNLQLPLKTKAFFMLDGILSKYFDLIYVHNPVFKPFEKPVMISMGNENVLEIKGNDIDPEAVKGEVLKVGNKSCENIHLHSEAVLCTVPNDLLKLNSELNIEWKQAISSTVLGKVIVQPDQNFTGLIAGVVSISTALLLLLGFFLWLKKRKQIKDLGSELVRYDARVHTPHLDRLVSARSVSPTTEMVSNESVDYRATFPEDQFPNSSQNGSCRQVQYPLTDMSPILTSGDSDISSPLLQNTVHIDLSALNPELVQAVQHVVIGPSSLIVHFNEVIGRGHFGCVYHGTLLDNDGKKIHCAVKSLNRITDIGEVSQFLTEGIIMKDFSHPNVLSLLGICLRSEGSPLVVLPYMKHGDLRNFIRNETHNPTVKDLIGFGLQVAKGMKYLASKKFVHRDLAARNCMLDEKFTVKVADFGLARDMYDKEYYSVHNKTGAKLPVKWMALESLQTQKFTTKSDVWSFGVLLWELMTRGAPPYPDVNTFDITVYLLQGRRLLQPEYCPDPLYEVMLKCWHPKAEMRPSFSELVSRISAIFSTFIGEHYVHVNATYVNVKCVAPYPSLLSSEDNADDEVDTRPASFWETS
Experimental: (§1) The Met activation ability of the HGF-PAS dimer peptide was evaluated by luciferase assay. To 25 μL of Opti-MEM medium (Thermo Fisher Scientific), 0.6 μL of Attractene Transfection Reagent (QIAGEN) was added, and the mixture was incubated at room temperature for 5 minutes. To the above mixed solution, a mixed solution of 25 μL of Opti-MEM and 1 μL of SRE reporter vector (QIAGEN) was added, and the mixture was incubated at room temperature for 20 minutes. This mixed solution was added to a 96-well plate, over which 40,000 cell/well HEK293E cells were seeded and incubated overnight in a 5% CO2 incubator at 37° C. After transfection, all culture supernatant was removed, 100 μL of Opti-MEM medium (evaluation basal medium) containing 0.5% FBS (Thermo Fisher Scientific), 1% non-essential amino acid solution (Thermo Fisher Scientific), and penicillin-streptomycin (Nacalai Tesque) was added, and incubation was performed at 37° C. for 4 hours, and thereby the cells were starved.
To the evaluation basal medium, 0 to 200 ng/mL HGF was added, or 0 to 800 ng/mL AET-PAS-aMD4dY-PEG11, AET-PAS-aMD4-PEG11, or AET-PAS-aMD4-PEG3 was added, or a culture supernatant containing PAS-aMD4dY-PEG11, PAS-aMD4-PEG11, or PAS-aMD4-PEG3 was added so as to be diluted 10-fold with respect to the medium, and the evaluation basal medium was added in an amount of 100 μL to the cells. The cells were stimulated by culturing overnight in a 5% CO2 incubator at 37° C.
The signal intensities were detected using Dual-Luciferase Reporter Assay System (Promega). The medium supernatant in an amount of 100 μL was removed, 50 μL of Glo reagent was added, and the cells were lysed for 10 minutes at room temperature. The luminescence of Firefly luciferase emitted from the cell lysate solution was detected with a plate reader to quantify the activation of the HGF-Erk-SRE pathway. Subsequently, 50 μL of Glo & Stop reagent solution was added, and after 10 minutes, the luminescence of the internal standard Renilla luciferase was detected to quantify the number of cells. The signal activity of each sample was quantified as SRE activity=(Firefly luciferase luminescence intensity)/(Renilla luciferase luminescence intensity). The relative signal activity values for the samples without addition of the evaluation compound were determined and used as relative receptor activity.
as §1, with “peptide linker variant” for “peptide”, “0.6 L” for “0.6 μL”
To the evaluation basal medium, 0 to 100 ng/mL HGF was added, or a culture supernatant containing AET-aMD4dY-PAS8, AET-aMD4dY-PAS22 (the same molecule as AET-PAS-aMD4dY-PEG11), AET-aMD4dY-PAS49, AET-aMD4dY-PAS100, AET-aMD4dY-PAS200, AET-aMD4dY-GS15, or AET-aMD4dY-GS22 was added to the medium so as to be diluted at a predetermined ratio, and the evaluation basal medium was added in an amount of 100 μL to the cells. The cells were stimulated by culturing overnight in a 5% CO2 incubator at 37° C.
The Met activation ability of the stabilized HGF-PAS dimer peptide was evaluated by luciferase assay. […]

[2] = system: HuCCT1 cells; assay: Tubular structure formation of HuCCT1 cells in collagen gel; type: cell-based; details: 40 ng/mL, day 7
Source text: It is known that HGF is allowed to act on HUVEC cells and HuCCT1 cells contained in collagen gel to form a tubular structure (K. Ito, et al. Nat. Commun. 6, 6373, 2015). It has also been reported that a Met full agonist having a function similar to that of HGF can form a tubular structure in the above cells, whereas a partial agonist having only a partial function cannot promote the formation of a tubular structure (W. Miao, et al. Int. J. Mol. Sci. 19, 3141, 2018). Therefore, it was decided to confirm whether the HGF-PAS dimer peptide was a full agonist or a partial agonist by using a tubular structure formation experiment using HuCCT1 cells.
To 8 equivalents of CellMatrix type IA (Nitta Gelatin), 1 equivalent of 10-fold concentrated D-MEM/F12 (Thermo Fisher Scientific) and 1 equivalent of reconstitution buffer (22 g/L sodium bicarbonate, 47.7 g/L HEPES, 0.05N sodium hydroxide aqueous solution) were mixed in order on ice. HuCCT1 cells were added at 25,000 cells per mL of the mixture and mixed on ice. To a 48-well cell culture plate, 400 μL of the above mixture was added, and the mixture was allowed to stand for 4 hours under the conditions of 37° C. and 5% CO2 for gelation. Onto the formed intracellular encapsulated collagen gel, 500 μL of RPMI 1640 medium containing 10% FBS was added. The cell-stimulating group was cultured by adding 35 ng/mL HGF or 40 ng/mL AET-PAS-aMD4dY-PEG11. […]

Substance: HGF: recombinant human HGF (rhHGF, R&D Systems)
- signal activation ability, dimer versus monomer [1]: showed signal activation ability

Substance: AETCRQFNRRTHEVWNLDCGAAPAAPAPAAPAAPAPAAPAAPGCRQFNRRTHEVWNLDC (disulfide 4-19, 44-59; also: PEG11) [AET-PAS-aMD4dY-PEG11]
- agonist type (full or partial) for Met [2]: full agonist for Met
- maximum activity compared with HGF ([1]; Example 6, AET form 0 to 800 ng/mL, PAS form culture supernatant diluted 10-fold): comparable to 100 ng/mL HGF
- signal activation ability, dimer versus monomer [1]: showed signal activation ability
